According to paper PMC7998613, “Annexin A2 Flop-Out Mediates the Non-Vesicular Release of DAMPs/Alarmins from C6 Glioma Cells Induced by Serum-Free Conditions” (Cells, 2021):

Columns and labels:
[1] = target: T1, recombinant Strep-tagII-S100A13 protein; assay: ELISA; 100 uM amlexanox
T1 chain: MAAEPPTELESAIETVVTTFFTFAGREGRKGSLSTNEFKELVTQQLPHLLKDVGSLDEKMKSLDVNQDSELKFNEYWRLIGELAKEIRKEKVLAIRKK

[2] = target: T1, recombinant Strep-tagII-S100A13 protein; assay: ELISA; vehicle 0.05% DMSO
[3] = target: the molecule itself; assay: SDS-resistant band on the immunoblot of the pull-down eluate; The Strep-tagII-S100A13 pull-down eluate from the C6 glioma cytosolic fraction was run on SDS-PAGE and blotted with anti-ANXA2. The 63 kDa band is read as the ANXA2 dimer.

B1: annexin A2 (ANXA2), endogenous in C6 glioma cells (natural protein, rat (endogenous in C6 glioma cells), UniProt Q07936 1-339, looked up)
chain: MSTVHEILCKLSLEGDHSTPPSAYGSVKPYTNFDAERDALNIETAIKTKGVDEVTIVNILTNRSNAQRQDIAFAYQRRTKKELPSAMKSALSGHLETVMLGLLKTPAQYDASELKASMKGLGTDEDSLIEIICSRTNQELQEINRVYKEMYKTDLEKDIISDTSGEFRKLLVALAKGKRAEDGSVIDYELIDQDARELYDAGVKRKGTDVPKWISIMTERSVCHLQKVFERYKSYSPYDMLESIRKEVKGDLENAFLNLVQCIQNKPLYFADRLYDSMKGKGTRDKVLIRIMVSRSEVDMLKIRSEFKRKYGKSLYYFIQQDTKGDYQKALLYLCGGDD
notes: annexin A2, rat, endogenous in C6 glioma cells; In whole cell extracts it ran as a single band; also called dimeric ANXA2 of 63 kDa; ANXA2 dimer; source: endogenous, rat C6 glioma cells (cytosolic fraction; fixed cells for in situ PLA)
For B1, the Kd [1] was 418 nM, the Kd [2] was 416 nM and the “stoichiometry N” value [3] was 2.
